From US12173330B2, “Method for producing hydroxy-L-pipecolic acid” (API CORPORATION, priority 2015, dated 2024)
Changes are numbered by the printed parent chain. Names and notes keep the numbering of the source.

Legend:
[1] = Catalytic efficiency (kcat/Km) of L-pipecolic acid hydroxylases with L-proline (Example 3); assay type: biochemical; conditions: for hydroxy-L-proline detected from the reaction solution: L-proline as substrate, Example 3, in words
Protocol: Each of the obtained recombinant E. coli strains in a volume of 0.6 mL was recovered by centrifugation and was suspended in 0.5 mL of 50 mmol/L MES (2-morpholinoethanesulfonic acid) buffer at pH 6. The container containing the suspension was placed in ice-water bath to perform sonication and then spun at 12,000 rpm. The obtained supernatant was used as an enzyme solution in Example 3.
Subsequently, 0.05 mL of 1 mol/L hydrochloric acid was added to stop the reaction.
The reaction using L-proline as a substrate was carried out under the same conditions as in the above reaction using L-pipecolic acid.
Then, each reaction solution was treated using 1-fluoro-2,4-dinitrophenyl-5-L-alaninamide (FDAA) (manufactured by Tokyo Chemical Industry Co., Ltd.) according to a method as described below, to obtain a FDAA-derivative of a hydroxy-L-pipecolic acid or hydroxy-L-proline included in each reaction solution.
To the reaction solution after stopping the reaction, 0.05 mL of 1 mol/L sodium hydroxide was added for neutralization. After centrifuging the solution at 12,000 rpm, 15 μL of 0.5 mol/L borate buffer (pH 9) was added to 15 μL of the obtained supernatant, followed by further addition of 30 μL of 20 mmol/L FDAA solution in acetone and incubation at 40° C. for one hour. Subsequently, 10 μL of 1 mol/L hydrochloric acid was added to stop the derivatization reaction. The resulting solution was diluted by adding 80 μL of methanol, and then centrifuged at 12,000 rpm. The obtained supernatant was used as a FDAA derivative solution.
The amount of produced hydroxy-L-pipecolic acid or hydroxy-L-proline was analyzed with UPLC-MS (manufactured by Waters Co.).
An aliquot containing 5 μg of total protein was taken from each enzyme solution obtained in Example 2, loaded on each lane, and then electrophoresed on polyacrylamide gel. The obtained electrophoretogram was analyzed using the image analysis software Image Lab3.0 (manufactured by Bio-Rad Laboratories, Inc.) to determine the content of each hydroxylase. A carbonic anhydrase (manufactured by Sigma-Aldrich Co. LLC) was used as a quantification reference. The content of a hydroxylase of interest was calculated from the signal intensity of the enzyme of interest, based on the signal intensities of bands corresponding to 200 ng, 400 ng and 600 ng of the quantification reference provided for the electrophoresis.
The catalytic efficiency of each enzyme was calculated based on the Michaelis-Menten kinetic equation.
It is known that, in FIG. 1, the reciprocal of each intercept with the x-axis, multiplied with −1, represents a km value (mmol/L) and the reciprocal of each intercept with the y-axis represents a Vmax value (U/mg), the maximum rate of reaction.
The catalytic ability per molecule of the enzyme (kcat) can be calculated from the Vmax and the molecular weight of the enzyme. Table 5 indicates the result of the calculation of catalytic efficiency (kcat/km), which is an index representing the catalytic ability of an enzyme, based on the obtained kcat and km values.

[2] = Production of hydroxy-L-pipecolic acids by culture of recombinant E. coli expressing the hydroxylase (Example 5); assay type: cell-based, E. coli BL21 (DE3); conditions: for Accumulation of (4S)-hydroxy-L-proline: 120 hours; for Accumulation amount of (4S)-hydroxy-L-proline / Accumulation amount of (5S)-Hydroxy-L-pipecolic acid / Accumulation amount of L-pipecolic acid: after 120 hours, 20 mmol/L L-pipecolic acid in medium, 30° C.
[3] = 5-hydroxy-L-pipecolic acid-producing activity of McPH mutants (Example 6); assay type: biochemical; conditions: for Relative activity (5-hydroxy-L-pipecolic acid-producing activity, wild type = 100): Table 10, double and triple mutants
Excerpt: Each of the obtained plasmids was used to transform E. coli (Eschelichia coli) BL21 (DE3) (manufactured by Invitrogen) according to a conventional method and thus to obtain recombinant E. coli strains expressing the respective mutants.
Furthermore, the combination effect of the respective mutations was examined in the mutations corresponding to McPHm2, McPHm3, and McPHm9, each of which was effective to improve the activity. A plasmid expressing a double mutant (McPHm10) with substitutions of phenylalanine to tyrosine at position 5 and cysteine to alanine at position 23, and a plasmid expressing a triple mutant, which is derived from the double mutant and further has a substitution of aspartic acid to glutamic acid at position 282, were constructed. Then, recombinant E. coli strains were produced according to the method described above, and the resulting enzyme solutions were used to evaluate the 5-hydroxy-L-pipecolic acid-producing activity.

[4] = Reactivity comparison of L-pipecolic acid 5-hydroxylases, substrate L-proline (Example 4); conditions: for Relative activity, Substrate: L-proline (hydroxy-L-proline-producing activity, 100 = hydroxy-L-pipecolic acid-producing activity): 10 mmol/L substrate, 30° C., 30 minutes; for hydroxy-L-proline detected from the reaction solution: Example 4, 10 mmol/L L-proline, in words
Protocol: (§1) The detection of the products was based on the absorbance at a wavelength of 340 nm.
(§2) The activity values were evaluated by the amount of a product per gram of total protein (U/g-protein).

[5] = Reactivity comparison of L-pipecolic acid 5-hydroxylases, substrate L-pipecolic acid (Example 4); conditions: 10 mmol/L substrate, 30° C., 30 minutes; hydroxy-L-pipecolic acid-producing activity set to 100
Protocol: as §1, §2

[6] = Hydroxylation activity of McPH mutants with L-proline as substrate (Example 6); assay type: biochemical; conditions: method of Example 4, in words
[7] = Catalytic efficiency (kcat/Km) of L-pipecolic acid hydroxylases with L-pipecolic acid (Example 3); assay type: biochemical; conditions: in words

B1: McPH: amino acid hydroxylase from Micromonospora chokoriensis, GenBank WP_030487089, SEQ ID NO: 2 (protein, listed as Micromonospora chokoriensis)
chain: MRTHFVGEVALDLARLEADLATCRSLEWSEAYSDYVFGGSWKSCMLWAPGGDAGDGVVTDYAYDRSAGFTPHAERLPYLAELIRETADLDRLNFARLALVTNSVIIPHRDLLELSDLPDEARNEHRMHIPLATNDNCFFNEDNVVYRMRRGEVWFLDASRIHSVAVLTAQPRIHLMLDFVDTPGAGSFTRVAGGGVEAGIPVDRIVTRPPLGDDERADLFGVAPLLSMDTFDEVFSIVIKKHFRRDGGSDFVWDTMLELAAKSPDPAVLPHTEELRKHYTLDRSA
- hydroxy-L-proline detected from the reaction solution [1]: no hydroxy-L-proline was detected
- Activity, Substrate: L-proline (cell spanning Km to kcat/Km) ([1]; in words): (No activity )
- Accumulation of (4S)-hydroxy-L-proline ([2]; in words): No accumulation of (4S)-hydroxy-L-proline was confirmed
- Accumulation amount of (4S)-hydroxy-L-proline [2]: 0 mmol/L
- Accumulation amount of (5S)-Hydroxy-L-pipecolic acid [2]: 23.5 mmol/L
- Accumulation amount of L-pipecolic acid [2]: 1.8 mmol/L
- Conversion of the substrate to (5S)-hydroxy-L-pipecolic acid ([2]; incubation for 120 hours, in words): almost the entire amount of the substrate was allowed to convert to (5S)-hydroxy-L-pipecolic acid
- Relative activity (5-hydroxy-L-pipecolic acid-producing activity, wild-type McPH = 100%) ([3]; Table 9, single mutants, U/g-protein basis, method of Example 4): 100%
- Relative activity (5-hydroxy-L-pipecolic acid-producing activity, wild type = 100) [3]: 100
- Relative activity, Substrate: L-proline (hydroxy-L-proline-producing activity, 100 = hydroxy-L-pipecolic acid-producing activity) [4]: 0%
- hydroxy-L-proline detected from the reaction solution [4]: No hydroxy-L-proline was detected
- Relative activity, Substrate: L-pipecolic acid [5]: 100%

B2: McPHm11: McPH triple mutant F5Y, C23A, D282E; SEQ ID NO: 20 (protein, listed as Micromonospora chokoriensis)
chain: B1 chain with F5Y, C23A, D282E
- Relative activity (5-hydroxy-L-pipecolic acid-producing activity, wild type = 100) [3]: 314
- Activity compared with that of the wild-type enzyme ([3]; in words): three or more times higher
- Hydroxylation activity with L-proline as substrate [6]: virtually no activity against proline

B3: CaPH: L-proline cis-4-hydroxylase from Catenulispora acidiphila NBRC102108, GenBank WP_012787640, SEQ ID NO: 6 (protein, listed as Catenulispora acidiphila)
chain: MRTQYVAALELDEGRLAKDLETSASFNYSEAYSNYLIGGPWKSAMLYSAGGDAGDGLLTDYDYRQSSDFTDYGRQMPYLQELISTSVDLSRLTFVRLARFAKSVIVPHRDFLELEEIPEDKRSAHRLHIPLATHEECFFSEDNVVYRMRAGELWYFDASRIHSVVSFAEEPRIHLIFDFADRPGAGSLVTVPGEPEGAGVPAASAVDRPQLSDAERAALARLADVLTMDTFSEIFSVLVKKHFRRDGGEHFVWDTLTALARACPDPAVLPHTQELRRYFTLERPSGSGQA
- Activity, Substrate: L-pipecolic acid (cell spanning Km to kcat/Km) [7]: (No activity )
- hydroxy-L-proline detected from the reaction solution [1]: much amount of hydroxy-L-proline was detected
- Accumulation of (4S)-hydroxy-L-proline ([2]; in words): no accumulation of (4S)-hydroxy-L-proline is confirmed
- Accumulation amount of (4S)-hydroxy-L-proline [2]: 0 mmol/L
- Accumulation amount of (5S)-Hydroxy-L-pipecolic acid [2]: 0.8 mmol/L
- Accumulation amount of L-pipecolic acid [2]: 18.8 mmol/L
- Relative activity, Substrate: L-proline (hydroxy-L-proline-producing activity, 100 = hydroxy-L-pipecolic acid-producing activity) [4]: 583%
- hydroxy-L-proline detected from the reaction solution [4]: much amount of hydroxy-L-proline was detected
- Relative activity, Substrate: L-pipecolic acid [5]: 100%
